Experimental data from US20240059758A1 (CORAT THERAPEUTICS, published 2024).

B1: YU505-A01 (antibody, V domains shown)
VH: QVQLVQSGAEVKKPGASVKVSCKASGYTFTSYYMHWVRQAPGQGLEWMGIINPSGGSTSYAQKFQGRVTMTRDTSTSTVYMELSSLRSEDTAVYYCARDRHYYDSSGSSQATFLFDYWGQGTLVTVSS
VL: QSVLTQPPSVSGAPGQRVTISCTGSSSNIGAGYDVHWYQQLPGTAPKLLIYGNSNRPSGVPDRFSGSKSGTSASLAITGLQAEDEADYYCQSYDSSLNVFGTGTKLTVL
B2: hybrid antibody: VL YU536-D04 (SEQ ID No. 362) with VH STE90-C11 (SEQ ID No. 1305) (antibody, V domains shown)
VH: QVQLVESGGGLVQPGGSLRLSCAASGLTVSSNYMSWVRQAPGKGLEWVSVIYSGGSTYYADSVKGRFTISRDDSKNTLYLQMNSLRAEDTAVYYCARDVADAFDIWGQGTMVTVSS
VL: DIQLTQSPSSLSASVGDRVTITCRASQGISSYLAWYQQKPGKAPKLLIYAASTLQSGVPSRFSGSGSGTDFTLTISSLQPEDFATYYCQQLNSYPITFGQGTKLEIK
B3: hybrid antibody: VL YU536-D04 (SEQ ID No. 362) with VH YU537-H11 (SEQ ID No. 404) (antibody, V domains shown)
VH: EVQLLESGGGLIQPGGSLRLSCAASGLTVSSNYMSWVRQAPGKGLEWVSVIYSGGSTYYADSVKGRFTISRDNSKNALYLQMNSLRAEDTAVYYCARGESGSPYGMDVWGQGTLVTVSS
VL: DIQLTQSPSSLSASVGDRVTITCRASQGISSYLAWYQQKPGKAPKLLIYAASTLQSGVPSRFSGSGSGTDFTLTISSLQPEDFATYYCQQLNSYPITFGQGTKLEIK
B4: YU505-A02 (antibody, V domains shown)
VH: QVQLVESGAEVKKPGSSVKVSCKASGGTFSSYAISWVRQAPGQGLEWMGGIIPIFGTANYAQKFQGRVTITADESTSTAYMELSSLRSEDTAVYYCARQIWAYDSSGYPVPAEYFQHWGQGTLVTVSS
VL: QSVLTQPPSVSGAPGQRVTISCTGSSSNIGAGYDVHWYQQLPGTAPKLLIYGNSNRPSGVPDRFSGSKSGTSASLAITGLQAEDEADYYCQSYDSSLSGVVFGGGTKLTVL
B5: YU505-E02 (antibody, V domains shown)
VH: QVQLVQSGAEVKKPGSSVKVSCKASGGTFSSYTISWVRQAPGQGLEWMGRIIPILGIANYAQKFQGRVTITADKSTSTAYMELSSLRSEDTAVYYCARDMVSVGAAGPYYFDYWGQGTLVTVSS
VL: QSVLTQPPSVSEAPRQRVTISCTGSSSNIGAGYDVHWYQQLPGTAPKLLIYGNSNRPSGVPDRFSGSKSVTSASLAITGLQAEDEADYYCQSYDSSLSGSVFGGGTKLTVL
B6: YU519-A09 (antibody, V domains shown)
VH: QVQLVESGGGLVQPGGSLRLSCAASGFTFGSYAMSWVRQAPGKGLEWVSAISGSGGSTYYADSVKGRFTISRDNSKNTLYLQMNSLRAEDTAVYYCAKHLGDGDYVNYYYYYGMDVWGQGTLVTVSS
VL: SYVLTQPPSVSVAPRQTARITCGGNNIGSKNVHWYQQKPGQAPVLVVYDDNVRPSGIPERFSGSNSGNTATLTISRVEAGDEADYYCQVWLNSSDDVLFGGGTKVTVL
B7: YU505-A05 (antibody, V domains shown)
VH: QVQLVQSGAEVKKPGSSVKVSCKASGGTFSSYAISWVRQAPGQGLEWMGGIIPIFGTANYAQKFQGRVTITADESTSTAYMELSSLRSEDTAVYYCARSDSGYSGYGYFDYWGQGTLVTVSS
VL: QSALTQPASVSGSPGQSISISCTGTSSDVGRYNYVSWYQQHPGKAPKLMIYDVTNRPSGVSSRFSGSKSGNAASLTISGLQAEDEAEYYCTSYTSSNTLVIFGGGTKVTVL
B8: hybrid antibody: VL STE90-C11 (SEQ ID No. 1309) with VH YU536-D04 (SEQ ID No. 364) (antibody, V domains shown)
VH: QVQLVQSGGGLVQPGGSLRLSCAASGLTVSSNYMSWVRQAPGKGLEWVSVIYSGGSTYYADSVKGRFIISRDNSKNTLYLQMNSLRAEDTAVYYCARDLVVMGLDVWGKGTLVTVSS
VL: DIVMTQSPSFLSASVGDRVTITCRASQGISSYLAWYQQKPGKAPKLLIYAASTLQSGVPSRFSGSGSGTEFTLTISSLQPEDFATYYCQQLNSYPPFTFGPGTKVDIK
B9: hybrid antibody: VL STE90-C11 (SEQ ID No. 1309) with VH YU537-H11 (SEQ ID No. 404) (antibody, V domains shown)
VH: EVQLLESGGGLIQPGGSLRLSCAASGLTVSSNYMSWVRQAPGKGLEWVSVIYSGGSTYYADSVKGRFTISRDNSKNALYLQMNSLRAEDTAVYYCARGESGSPYGMDVWGQGTLVTVSS
VL: DIVMTQSPSFLSASVGDRVTITCRASQGISSYLAWYQQKPGKAPKLLIYAASTLQSGVPSRFSGSGSGTEFTLTISSLQPEDFATYYCQQLNSYPPFTFGPGTKVDIK
B10: hybrid antibody: VL YU537-H11 (SEQ ID No. 402) with VH YU536-D04 (SEQ ID No. 364) (antibody, V domains shown)
VH: QVQLVQSGGGLVQPGGSLRLSCAASGLTVSSNYMSWVRQAPGKGLEWVSVIYSGGSTYYADSVKGRFIISRDNSKNTLYLQMNSLRAEDTAVYYCARDLVVMGLDVWGKGTLVTVSS
VL: QSVLTQPPSVSAAPGQKVTISCSGSSSNIGNNYVSWYQQLPGTAPKLLIYDTNKRPSGIPDRFSGSKSGTSATLGITGLQTGDEADYYCATWDSSLSVGVFGGGTKLTVL
B11: YU505-F03 (antibody, V domains shown)
VH: EVQLLESGAEVKKPGASVKVSCKASGYTFTGYYMHWVRQAPGQGLEWMGQINPNSGGTNYAQKFQGRVTMTRDTSISTAYMELSRLRSDDTAVYYCARGEGFDYWGQGTLVTVSS
VL: SYVLTQPPSASGTPGQRVTISCSGSSSNIGSNYVYWYQQLPGTAPKLLIYRNNQRPSGVPDRFSGSKSGTSASLAISGLRSEGEADYYCAAWDDSLSGVVFGGGTKVTVL
B12: YU505-B06 (antibody, V domains shown)
VH: not shown
VL: SYVLTQPPSVSVAPGKTARITCGGNNIGSKSVHWYQQKPGQAPVLVIYYDSDRPSGIPERFSGSNSGNTATLTISRVEAGDEADYYCQVWDSSSDHVVFGGGTKLTVL
B13: YU505-D02 (antibody, V domains shown)
VH: QVQLVQSGAEVKKPGSSVKVSCKASGGTFSSYAISWVRQAPGQGLEWMGGIIPIFGTANYAQKFQGRVTITADKSTSTAYMELSSLRSEDTAVYYCARETSSGWSFLDYWGQGTLVTVSS
VL: SYVLTQPPSVSVAPGKTARITCGGNNIGSKSVHWYQQKPGQAPVLVIYYDSDRPSGIPERFSGSNSGNTATLTISRVEAGDEADYYCQVWDSSSDHVVFGGGTKVTVL
B14: YU505-F05 (antibody, V domains shown)
VH: EVQLLESGGGVVQPGRSLRLSCAASGFTFSSYGMHWVRQAPGKGLEWVAVMSYDGSKKYYADSVKGRFTISRDNSKNTLYLQMNSLRAEDTAVYYCVTQGMDVWGQGTLVTVSS
VL: QSVLTQPPSVSVAPGKTARITCGGNNIGSKSVHWYQQKPGQAPVLVIYYISDRPSGIPERFSGSNSGNTATLTISRVEAGDEAAYYCHVWDSSSDHVVFGGGTKLTVL
B15: YU505-E01 (antibody, V domains shown)
VH: QVQLVQSGAEVKKPGSSVKVSCKASGGTFSSYSIVWVRQAPGQGLEWMGGIIPIFGTTNYAQKFQGRVTITADESTSTAFMELSNLKSEDTAVYFCARSLGATRDYWGQGTLVTVSS
VL: SYVLTQPPSVSEAPRQRVTISCSGSSSNIGNNAVNWYQQLPGKAPKLLIYYDDLLPSGVSDRFSGSKSGTSASLAISGLQSEDEADYYCAAWDDSLNGPVFGGGTKVTVL
B16: YU505-E04 (antibody, V domains shown)
VH: QVQLVQSGAEVKKPGSSVKVSCKASGGTFSSYAISWVRQAPGQGLEWMGGIIPIFGTANYAQKFQGRVTITADESTSTAYMELSSLRSEDTAVYYCARGRGYSYGHDYWGQGTLVTVSS
VL: SYELTQPPSVSEAPRQRVTISCSGSSSNIGNNAVNWYQQFPGKAPKLLIYYDDLLPSGVSDRFSGSKSGTSASLAISGLQSEDEADYYCAAWDDSLNGWVFGGGTKLTVL

Assays:
[1] = biological target: T1, receptor binding domain (RBD) of the S1-subunit of SARS-CoV-2 glycoprotein S (SARS-CoV-2, UniProt P0DTC2 319-541); assay: ACE2:RBD competition assay, 5 µg/ml IgG
[2] = biological target: T1, receptor binding domain (RBD) of the …; assay: RBD-binding quality as compared to STE90-C11, wt

Binder | ACE2:RBD inhibition with 5 µg/ml IgG [%] [1] | binding result [2]
B1 | 102% | –
B2 | – | binds
B3 | – | binds
B4 | 43.8% | –
B5 | 58.8% | –
B6 | 35.6% | –
B7 | 52.7% | –
B8 | – | binds
B9 | – | binds
B10 | – | binds
B11 | 42.2% | –
B12 | 58.5% | –
B13 | 49.4% | –
B14 | 26.7% | –
B15 | 24% | –
B16 | 28% | –
